Publication doi:10.64898/2025.12.30.697132
Like-named read-outs stand apart in the source and are kept apart here.

Assays:
XCL1 R23A,R43A (human) [1] = target: XCL1 R23A,R43A (human) (UniProt P47992); assay: 19F NMR
XCL1 R23A,R43A (human) [2] = target: XCL1 R23A,R43A (human) (UniProt P47992); assay: 19F NMR; remark: listed apart in the source

percent of the protein in the dimer fold (XCL1 R23A,R43A (human) [1]): 26%
percent of the protein in the dimer fold (XCL1 R23A,R43A (human) [2]): 20%
Substance: XCL1 R23A,R43A (from UniProt P47992 22-93) (domain or fragment)
